Data on 1 molecule can be found in patent publication US8034572B2, “Receptor for GDNF family ligands” (priority 2006, dated 2011).

What all share (type): binding
A short description of test [1]: SPR (IAsys): GFLs interaction with heparin-BSA cuvette. How it is done: (§1) The affinities of GFLs for heparin and heparin-like molecules (e.g. syndecan-3) were determined by plasmon surface resonance using the IAsys system (Affinity Sensors, Cambridge, UK). Planar aminosilane cuvettes (Affinity Sensors) were used for protein coupling to avoid problems with mass transport, which occur frequently with matrix surfaces. In the initial approach, heparin-BSA was immobilized to the cuvette surface using the manufacturer's instructions and different ligand concentrations were used to determine association (ka) and dissociation (kdis) rates using the IAsys Fastfit software. The dissociation constant Kd was determined from the binding dynamics as […], or from equilibrium response (R) using a simple Langmuir fit: R=(Rmax*C)/(Kd+C), where C is the ligand concentration. […] The dissociation constants were determined from binding dynamics and equilibrium response. The same cuvettes were used to test binding of heparan sulfate proteoglycan syndecan-3, which was purified as an ectodomain from early postnatal rat brains by HB-GAM affinity chromatography (Raulo et al., 1994).
(§2) Binding was analyzed using IAsys cuvettes with immobilized heparin-BSA or GFLs. The dissociation constant Kd was determined from dynamics of association and dissociation (Kd=kdis/ka), or from equilibrium response R (R=(Rmax*C)/(Kd+C), where C is ligand concentration).

A short description of test [2]: SPR (IAsys): heparin interaction with GFLs cuvette. Particulars: GFLs cuvette. On the procedure: as §1, §2
In another test the target is T1, syndecan-3 ectodomain (Rattus norvegicus, UniProt P33671).
T1 construct: purified as an ectodomain from early postnatal rat brains; from tissue; host or cells: early postnatal rat brain
T1 sequence (P33671 45-387 limits assumed): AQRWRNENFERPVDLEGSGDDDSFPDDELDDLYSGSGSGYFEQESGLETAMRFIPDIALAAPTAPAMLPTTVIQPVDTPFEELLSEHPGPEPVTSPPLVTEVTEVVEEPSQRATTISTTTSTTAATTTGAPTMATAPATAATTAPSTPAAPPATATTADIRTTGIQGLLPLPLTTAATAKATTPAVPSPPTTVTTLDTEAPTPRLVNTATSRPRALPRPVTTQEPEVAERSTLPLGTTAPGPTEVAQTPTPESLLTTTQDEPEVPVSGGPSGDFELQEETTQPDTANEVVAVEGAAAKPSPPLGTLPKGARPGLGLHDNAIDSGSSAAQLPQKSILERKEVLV
As to the kind of experiment: SPR (IAsys): syndecan-3 ectodomain interaction with GFLs cuvette. The note with it: syndecan-3 ectodomain in solution. On the procedure: as §1, §2

B1: GDNF: Glial cell line-derived neurotrophic factor, secreted growth factor, GDNF family ligand (protein)
chain: SPDKQMAVLPRRERNRQAAAANPENSRGKGRRGQRGKNRGCVLTAIHLNVTDLGLGYETKEELIFRYCSGSCDAAETTYDKILKNLSRNRRLVSDKVGQACCRPIAFDDDLSFLDDNLVYHILRKHSAKRCGCI
For the molecule B1, the “ka (×10^−5) (M^−1s^−1)” value in test [1] (GFL in solution) is recorded as 3.7 (×10^−5) M^−1s^−1; in test [2] (heparin in solution), 15 (×10^−5) M^−1s^−1; with syndecan-3 ectodomain, 13 ± 2 (×10^−5) M^−1s^−1. Besides, the “kdis” value in test [1] (GFL in solution) is 0.017 s⁻¹; in test [2] (heparin in solution) it was 0.034 s⁻¹. The “Kd = kdis/ka” value in test [1] (from dynamics) was 47.3 ± 9.9 nM; in test [2] (from dynamics), 22.7 ± 2.7 nM. Also, the Kd amounted to 51.3 ± 3.6 nM in test [1] (from equilibrium response) and 12.3 ± 3.4 nM in test [2] (from equilibrium response, read-out: Kd (equilibrium)).

The term Kd denotes the free concentration of one partner at which half of the binding sites on the other are occupied at equilibrium, for simple one-to-one binding.
